Reference: PMC11249637, “Interaction of the Atypical Tetracyclines Chelocardin and Amidochelocardin with Renal Drug Transporters” (ACS Pharmacology & Translational Science, 2024)
“And” between values parts separate entries of the source, which are not always exact repeats. Equal entries are not always repeated.

Columns and labels:
p-gp = tested on: p-gp; parameters: method as in PMID 27499331; conditions: cited from earlier work
[1] = tested on: organic anion transporters; parameters: method as in PMID 27499331; conditions: cited from earlier work
[2] = substrate: CC(=O)C1=C(O)[C@@H](N)[C@H]2Cc3c(c(O)c4c(O)c(C)ccc4c3C)C(=O)[C@@]2(O)C1=O; assay: Three-point uptake (substrate assessment) in mOat1-overexpressing HEK293 cells; assay type: in vitro ADME, mouse; conditions: other: Michaelis–Menten fit, 1, 10 and 100 μM; 30.0 °C
Procedure: (§1) This is important to gain a better understanding of the underlying mechanisms of secretion into urine. Therefore, we assessed the amount of compound taken up by the vector and transporter cells at three different concentrations (1, 10, and 100 μM for mOat1 and mOct1; 0.1, 1, and 10 μM for mOat3) and at two different incubation periods (1 and 5 min for mOat1 and mOct1; 5 and 10 min for mOat3).
(§2) The incubation buffer contained CHD and CDCHD in a final concentration of 1, 10, and 100 μM. After 1 and 5 min, the incubation was terminated. In addition, the probe inhibitor probenecid (100 μM) was added in one concentration to 10 μM CHD and CDCHD, respectively, and after 1 and 5 min, the incubation was stopped. Inhibition of mOat1-mediated ^3H-PAH (10 μM) uptake by 100 μM probenecid was performed as a control experiment. After 1 min, the incubation was terminated. All experiments were conducted in triplicate.
(§3) First, a calibration curve was prepared by spiking different concentrations of CHD and CDCHD into the cell matrix. Caffeine was used as an internal standard. In addition, quality control samples (QCs) were prepared for CHD and CDCHD in a cell matrix. The following extraction procedures were used: 300 μL of acetonitrile/water (1:1) is added to the cell pellet (sample or calibration/QC sample) for 15 min at 2000 rpm on an Eppendorf MixMate vortex mixer. 10 μL of this extracted sample is used for further analysis. 10 μL of the extracted cell sample is further extracted with 25 μL of a mixture of methanol/acetonitrile (2:1) containing 12.5 ng/mL caffeine as an internal standard (on ice) for 5 min at 2000 rpm on an Eppendorf MixMate vortex mixer. Then, samples were spun down at 15,870 × g for 10 min. Supernatants were transferred to standard HPLC glass vials. Samples were analyzed using an Agilent 1290 Infinity II HPLC system coupled to an AB Sciex QTrap6500plus mass spectrometer. LC conditions were as follows: column: Agilent Zorbax Eclipse Plus C18, 50 × 2.1 mm, 1.8 μm; temperature: 30°C; injection volume: 5 μL per sample; flow rate: 700 μL/min. Samples were run under the following conditions. Solvents: A: 100% water +0.1% formic acid; solvent B: 100% acetonitrile +0.1% formic acid. The gradient for CDCHD was as follows: 99% A at 0 min, 99% A until 0.1 min, 99–90% A from 0.1 to 1.0 min, 90–50% A from 1.0 to 2.4 min, 50–35% A from 2.4 to 2.7 min, 35–0% A from 2.7 until 4.5 min, 0% A until 5.5 min, 0–99% from 5.5 to 5.7 min, 99% A until 6.0 min. […]
(§4) For statistical testing of differences in uptake ratio or for the inhibitory effect, an ordinary one-way ANOVA test was performed using GraphPad Prism 9.5.1 software. […] Michaelis–Menten kinetics were determined using the Michaelis–Menten algorithm of GraphPad Prism 9.5.1 software. […]

[3] = substrate: Cc1ccc2c(C)c3c(c(O)c2c1O)C(=O)[C@@]1(O)C(=O)C(C(N)=O)=C(O)[C@@H](N)[C@H]1C3; assay: as above; assay type: in vitro ADME, mouse; conditions: other: Michaelis–Menten fit, 1, 10 and 100 μM; 30.0 °C
Procedure: as §1, §2, §3, §4

[4] = substrate: CC(=O)C1=C(O)[C@@H](N)[C@H]2Cc3c(c(O)c4c(O)c(C)ccc4c3C)C(=O)[C@@]2(O)C1=O; assay: Three-point uptake (substrate assessment) in mOct1-overexpressing HEK293 cells; assay type: in vitro ADME, mouse; conditions: other: Michaelis–Menten fit, 1, 10 and 100 μM; 30.0 °C
Procedure: as §1
as §2, with “inhibitor decynium22 (50” for “inhibitor probenecid (100”, “of mOct1-mediated ^3H-MPP” for “of mOat1-mediated ^3H-PAH”, “by 50” for “by 100”, “μM decynium22” for “μM probenecid”
(§5) First, a calibration curve was prepared by spiking different concentrations of CHD and CDCHD into the cell matrix. Caffeine was used as an internal standard. In addition, quality control samples (QCs) were prepared for CHD and CDCHD in a cell matrix. The following extraction procedures were used: 300 μL of acetonitrile/water (1:1) is added to the cell pellet (sample or calibration/QC sample) for 15 min at 2000 rpm on an Eppendorf MixMate vortex mixer. 10 μL of this extracted sample is used for further analysis. 10 μL of the extracted cell sample is further extracted with 25 μL of a mixture of methanol/acetonitrile (2:1) containing 12.5 ng/mL caffeine as an internal standard (on ice) for 5 min at 2000 rpm on an Eppendorf MixMate vortex mixer. […] Samples were analyzed using an Agilent 1290 Infinity II HPLC system coupled to an AB Sciex QTrap6500plus mass spectrometer. […]
as §4

[5] = substrate: Cc1ccc2c(C)c3c(c(O)c2c1O)C(=O)[C@@]1(O)C(=O)C(C(N)=O)=C(O)[C@@H](N)[C@H]1C3; assay: as above; assay type: in vitro ADME, mouse; conditions: other: Michaelis–Menten fit, 1, 10 and 100 μM; 30.0 °C
Procedure: as §1
as §2, with “inhibitor decynium22 (50” for “inhibitor probenecid (100”, “of mOct1-mediated ^3H-MPP” for “of mOat1-mediated ^3H-PAH”, “by 50” for “by 100”, “μM decynium22” for “μM probenecid”
as §5, §4

[6] = substrate: CC(=O)C1=C(O)[C@@H](N)[C@H]2Cc3c(c(O)c4c(O)c(C)ccc4c3C)C(=O)[C@@]2(O)C1=O; assay: Three-point uptake (substrate assessment) in mOat3-overexpressing HEK293 cells; assay type: in vitro ADME, mouse; conditions: other: Michaelis–Menten fit, 0.1, 1 and 10 μM; 30.0 °C
Procedure: as §1
The incubation buffer contained CHD and CDCHD in a final concentration of 0.1, 1, and 10 μM. After 5 and 10 min, the incubation was terminated. In addition, the probe inhibitor probenecid (100 μM) was added in one concentration to 10 μM CHD and CDCHD, respectively, and after 5 and 10 min, the incubation was stopped. Inhibition of mOat3-mediated ^3H-ES (1 μM) uptake by 100 μM probenecid was performed as a control experiment. After 1 min, the incubation was terminated. […]
First, a calibration curve was prepared by spiking different concentrations of CHD and CDCHD into the cell matrix. […] Samples were analyzed using an Agilent 1290 Infinity II HPLC system coupled to an AB Sciex QTrap6500plus mass spectrometer. […]
as §4

CN(C)c1cc(CNCC(C)(C)C)c(O)c2c1C[C@H]1C[C@H]3[C@H](N(C)C)C(O)=C(C(N)=O)C(=O)[C@@]3(O)C(O)=C1C2=O [omadacycline]
Km (p-gp): ~82 µM
substrate or inhibitor of organic anion transporters (in words) [1]: neither a substrate nor an inhibitor

B1: mOat1 (Mus musculus) (protein)
chain: MAFNDLLKQVGGVGRFQLIQVTMVVAPLLLMASHNTLQNFTAAIPAHHCRPPANANLSKDGGLEAWLPLDKQGRPESCLRFPFPHNGTEANGTGVTEPCLDGWVYDNSTFPSTIVTEWNLVCSHRAFRQLAQSLFMVGVLLGAMMFGYLADRLGRRKVLILNYLQTAVSGTCAAYAPNYTVYCIFRLLSGMSLASIAINCMTLNMEWMPIHTRAYVGTLIGYVYSLGQFLLAGIAYAVPHWRHLQLAVSVPFFVAFIYSWFFIESARWYSSSGRLDLTLRALQRVARINGKQEEGAKLSIEVLQTSLQKELTLNKGQASAMELLRCPTLRRLFLCLSMLWFATSFAYYGLVMDLQGFGVSMYLIQVIFGAVDLPAKFVCFLVINSMGRRPAQLASLLLAGICILVNGIIPRGHTIIRTSLAVLGKGCLASSFNCIFLYTGELYPTMIRQTGLGMGSTMARVGSIVSPLISMTAEFYPSIPLFIFGAVPVAASAVTALLPETLGQPLPDTVQDLKSRSRGKQKQQQLEQQKQMIPLQVSTQEKNGL
notes: expressed in transfected cells; host or cells: HEK293
Km [2]: 65.08 µM
Vmax [2]: 82.38 nM/min
Km [3]: 39.64 µM
Vmax [3]: 11.48 nM/min

B2: mOct1 (Mus musculus) (protein)
chain: MPTVDDVLEHVGEFGWFQKQAFLLLCLISASLAPIYVGIVFLGFTPDHHCRSPGVAELSQRCGWSPAEELNYTVPGLGSAGEASFLSQCMKYEVDWNQSTLDCVDPLSSLAANRSHLPLSPCEHGWVYDTPGSSIVTEFNLVCGDAWKVDLFQSCVNLGFFLGSLVVGYIADRFGRKLCLLVTTLVTSLSGVLTAVAPDYTSMLLFRLLQGMVSKGSWVSGYTLITEFVGSGYRRTTAILYQVAFTVGLVGLAGVAYAIPDWRWLQLAVSLPTFLFLLYYWFVPESPRWLLSQKRTTQAVRIMEQIAQKNRKVPPADLKMMCLEEDASERRSPSFADLFRTPSLRKHTLILMYLWFSCAVLYQGLIMHVGATGANLYLDFFYSSLVEFPAAFIILVTIDRIGRIYPIAASNLVAGAACLLMIFIPHELHWLNVTLACLGRMGATIVLQMVCLVNAELYPTFIRNLGMMVCSALCDLGGIFTPFMVFRLMEVWQALPLILFGVLGLSAGAVTLLLPETKGVALPETIEEAENLGRRKSKAKENTIYLQVQTGKSPHT
notes: as for B1
Km [4]: 8.91 µM and 8.9 µM
Vmax [4]: 49 nM/min
Km [5]: 55.2 µM

B3: mOat3 (Mus musculus) (protein)
chain: MTFSEILDRVGSMGPFQYLHVTLLALPILGIANHNLLQIFTATTPDHHCRPPPNASLEPWVLPLGPNGKPEKCLRFVHLPNASLPNDTQGATEPCLDGWIYNSTRDTIVTEWDLVCGSNKLKEMAQSVFMAGILVGGPVFGELSDRFGRKPILTWSYLLLAASGSSAAFSPSLTVYMIFRFLCGCSISGISLSTIILNVEWVPTSTRAISSTTIGYCYTIGQFILPGLAYAVPQWRWLQLSVSAAFFIFSLLSWWVPESIRWLVLSGKFSKALKTLQRVATFNGKKEEGEKLTVEELKFNLQKDITSAKVKYGLSDLFRVSILRRVTFCLSLAWFATGFAYYSLAMGVEEFGVNIYILQIIFGGVDIPAKFITILSISYLGRRITQGFLLILAGVAILALIFVSSEMQLLRTALAVFGKGCLSGSFSCLFLYTSELYPTVLRQTGMGISNIWARVGSMIAPLVKITGELQPFIPNVIFGTMTLLGGSAAFFLLETLNRPLPETIEDIQDWYQQTKKTKQEPEAEKASQTIPLKTGGP
notes: as for B1
Km [6]: 6.1 µM and 6 µM
Vmax [6]: 26.42 nM/min
